Consider four molecules from patent US20230212587A1, “Mutant Hydroxyphenylpyruvate Dioxygenase Polypeptide, Encoding Gene Thereof and Use Therefor” (Beijing Dabeinong Biotechnology Co., Ltd., priority 2019, published 2023).

The assay concerns Arabidopsis thaliana T1 plants. Put plainly: Topramezone tolerance of transgenic Arabidopsis thaliana T1 plants (pesticide damage grade by bleached leaf area, score, resistance evaluation). It is filed as in vivo. The following applies: HPPD F372G mutants, Table 6. The method, boiled down: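 Eighteen days after sowing, wild-type and HPPD-transgenic T1 Arabidopsis receive a topramezone spray at 1×, 2× or 4× field rate (25–100 g ai/ha) or water. Seven days later each plant is graded by its proportion of bleached leaf area.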

B1: AtHPPDm-F372G: Arabidopsis thaliana HPPD mutant F372G, SEQ ID NO: 297 (protein)
chain: MGHQNAAVSENQNHDDGAASSPGFKLVGFSKFVRKNPKSDKFKVKRFHHIEFWCGDATNVARRFSWGLGMRFSAKSDLSTGNMVHASYLLTSGDLRFLFTAPYSPSLSAGEIKPTTTASIPSFDHGSCRSFFSSHGLGVRAVAIEVEDAESAFSISVANGAIPSSPPIVLNEAVTIAEVKLYGDVVLRYVSYKAEDTEKSEFLPGFERVEDASSFPLDYGIRRLDHAVGNVPELGPALTYVAGFTGFHQFAEFTADDVGTAESGLNSAVLASNDEMVLLPINEPVHGTKRKSQIQTYLEHNEGAGLQHLALMSEDIFRTLREMRKRSSIGGFDFMPSPPPTYYQNLKKRVGDVLSDDQIKECEELGILVDRDDQGTLLQIGTKPLGDRPTIFIEIIQRVGCMMKDEEGKAYQSGGCGGFGKGNFSELFKSIEEYEKTLEAKQLVG
modifications: AtHPPDm-F372G Amino Acid Sequence
Take B1: the Resistance evaluation entry by setting is: (topramezone 25 g ai/ha (1x)) “Poorly resistant”; (topramezone 100 g ai/ha (4x)) “Non-resistant”.

B2: OsHPPDm-F372G: Oryza sativa HPPD mutant F372G, SEQ ID NO: 311 (protein)
chain: MPPTPTPTATTGAVSAAAAAGENAGFRLVGHRRFVRANPRSDRFQALAFHHVELWCADAASAAGRFAFALGAPLAARSDLSTGNSAHASLLLRSASVAFLFTAPYGGDHGVGADAATTASIPSFSPGAARRFAADHGLAVHAVALRVADAADAFRASVAAGARPAFQPADLGGGFGLAEVELYGDVVLRFVSHPDGADAPFLPGFEGVSNPGAVDYGLRRFDHVVGNVPELAPVAAYISGFTGFHEFAEFTAEDVGTAESGLNSVVLANNAETVLLPLNEPVHGTKRRSQIQTYLDHHGGPGVQHIALASDDVLGTLREMRARSAMGGFEFLAPPPPNYYDGVRRRAGDVLSEEQINECQELGVLVDRDDQGVLLQIGTKPVGDRPTFFLEMIQRIGCMEKDESGQEYQKGGCGGFGKGNFSELFKSIEEYEKSLEAKQAPTVQGS
modifications: OsHPPDm-F372G Amino Acid Sequence
Take B2: the Resistance evaluation result is “Moderately resistant” (topramezone 25 g ai/ha (1x)) and “Non-resistant” (topramezone 100 g ai/ha (4x)).

B3: CaHPPDm-F372G: Cicer arietinum HPPD mutant F372G, SEQ ID NO: 315 (protein)
chain: MGTIETQTGFKLVGFNNFVRTNPKSDRFKVKRFHHVEFWCPDATNTARRFSWGLGMPIVAKSDLSTGNQTHASYLLRSGDLNFLFTAAYSPSISLSAPHPTASIPSFSAPTSFAFSASHGLGVRAVAIEVDDAEFAYTTSVNHGAIPSSPPVVLDNRVKLAEVQLYGDVVLRYVSYNDPIETSNPNPNHWFLPGFEPVEETSSNQSIDFGIQRLDHAVGNVPELSSALNYVKQFTGFHEFAEFTAEDVGTSESGLNSTVLANNEETVLLPMNEPVYGTKRKSQIQTYLEHNEGAGLQHLALMSNDIFKTLREMRKRSGIGGFEFMPSPPPTYYSNLKKRVGDVLNDEQIKECEELGILVDKDDQGTLLQIGTKPVGDRPTIFIEIIQRVGCMLKDDEGKEYQKGGCGGFGKGNFSELFKSIEEYEKTLEIKRTA
modifications: CaHPPDm-F372G Amino Acid Sequence
On to B3, for which the Resistance evaluation result is “Poorly resistant” (topramezone 25 g ai/ha (1x)) and “Non-resistant” (topramezone 100 g ai/ha (4x)).

B4: GmHPPDm-F372G: Glycine max HPPD mutant F372G, SEQ ID NO: 313 (protein)
chain: MPMYTPSLSAPSSNHIQPSVTLPLYITTTKLNLKQQHHTTPMPIPMCNEIQAQAQAQAQPGFKLVGFKNFVRTNPKSDRFQVNRFHHIEFWCTDATNASRRFSWGLGMPIVAKSDLSTGNQIHASYLLRSGDLSFLFSAPYSPSLSAGSSAASSASIPSFDAATCLAFAAKHGFGVRAIALEVADAEAAFSASVAKGAEPASPPVLVDDRTGFAEVRLYGDVVLRYVSYKDAAPQAPHADPSRWFLPGFEAAASSSSFPELDYGIRRLDHAVGNVPELAPAVRYLKGFSGFHEFAEFTAEDVGTSESGLNSVVLANNSETVLLPLNEPVYGTKRKSQIETYLEHNEGAGVQHLALVTHDIFTTLREMRKRSFLGGFEFMPSPPPTYYANLHNRAADVLTVDQIKQCEELGILVDRDDQGTLLQIGTKPVGDRPTIFIEIIQRIGCMVEDEEGKVYQKGACGGFGKGNFSELFKSIEEYEKTLEAKRTA
modifications: GmHPPDm-F372G Amino Acid Sequence
Turning to B4, the Resistance evaluation result by setting is: (topramezone 25 g ai/ha (1x)) “Poorly resistant”; (topramezone 100 g ai/ha (4x)) “Non-resistant”.
